How the values were obtained:
[1] = target: T1, hFGFR2b-Fc (Kactus, Catalog #FGR-HM2BB) (human, UniProt P21802-3 22-378, biotinylated in Example 9 (printed as biotin-hFGFR2b-Fc; site not stated)); assay: competition ELISA: inhibition of FGF7-his binding to coated hFGFR2b-Fc
T1 construct: Bought reagent; also called biotin-hFGFR2b-Fc; not shown: Fc part
Description: (§1) Inhibition of binding of FGF7 and FGF10 to FGFR2b by anti-FGFR2b antibodies was measured by ELISA assay. Each step of each assay was performed by room temperature incubation with the appropriate reagent for 1 hour, except the initial plate coating step was done overnight at 4° C. Between each step, plates were washed 3 times in PBS containing 0.05% Tween 20.
(§2) To determine the abilities of the anti-FGFR2b mAbs to block ligand binding to FGFR2b, plates were coated with 1 μg/ml hFGFR2b-Fc (Kactus, Catalog #FGR-HM2BB), and followed by blocking with 2% BSA. The plates were next incubated with human FGF7-his (20 nM, Sino Biological, Catalog #10210-H07E) or biotin-FGF10 (5 nM, Kactus, Catalog #FGF-HE010B) in the presence of serial diluted (1:5) anti-FGFR2b mAbs, and the bound ligands were detected with HRP-anti 6×His tag (Abcam, Catalog #ab1187) or Streptavidin-Protein HRP (Thermo, Catalog #21126) and TMB substrate (Cell Signaling, Catalog #7004P6).

[2] = target: T1, hFGFR2b-Fc (Kactus, Catalog #FGR-HM2BB); assay: competition ELISA: inhibition of biotin-FGF10 binding to coated hFGFR2b-Fc
Description: as §1, §2

[3] = target: T2, human FGFR2b expressed on cells (hFGFR2b-expressing CHOK1 cells); Ba/F3 cells expressing full-length human … (human, UniProt P21802-3 22-822); assay: flow cytometry on CHOK1 cells expressing hFGFR2b, detection with APC anti-human IgG Fc
T2 construct: whole, on cells; also called FGFR2IIIb; CHOK1-FGFR2IIIb transfectants
Description: Appropriate cells (1×10⁵) were washed twice in FACS buffer (PBS+2% BSA), resuspended in 100 μl of FACS buffer containing serial diluted (1:5) anti-FGFR2b mAbs, and incubated at 4° C. for 1 hour. Cells were then washed twice in FACS buffer and the bound antibodies were detected by incubation with APC anti-human IgG Fc (Biolegend, Catalog #410712) for 1 hour at 4° C. After washing twice in FACS buffer, cells were analyzed on a Cytoflex (Beckmann Coulter). Aprutumab was also tested as a positive control which can bind to both FGFR2b and FGFR2c.

FGFR2b-his = target: T3, FGFR2b-his (human, UniProt P21802-3 22-378); assay: surface plasmon resonance (Octet, Sartorius): antibody immobilized by amine coupling, FGFR2b-his flowed over
T3 construct: also called human FGFR2b antigen; human FGFR2b (FGFR2b-his); not shown: his tag
Description: The binding affinities of anti-FGFR2b mAbs for human FGFR2b (FGFR2b-his) was measured using surface plasmon resonance (Octet, Sartorius). Anti-FGFR2b mAbs were immobilized on a dextran chip using the amine coupling kit and 100 mM ethylenediamine in 100 mM sodium borate, pH 8.0, was used as the blocking reagent. FGFR2b-his proteins diluted in HEPES-buffered saline with 0.05% surfactant P20 running buffer were flowed over the immobilized antibody.

T3 sequence (P21802 other isoform, or with tags, fused parts or gaps): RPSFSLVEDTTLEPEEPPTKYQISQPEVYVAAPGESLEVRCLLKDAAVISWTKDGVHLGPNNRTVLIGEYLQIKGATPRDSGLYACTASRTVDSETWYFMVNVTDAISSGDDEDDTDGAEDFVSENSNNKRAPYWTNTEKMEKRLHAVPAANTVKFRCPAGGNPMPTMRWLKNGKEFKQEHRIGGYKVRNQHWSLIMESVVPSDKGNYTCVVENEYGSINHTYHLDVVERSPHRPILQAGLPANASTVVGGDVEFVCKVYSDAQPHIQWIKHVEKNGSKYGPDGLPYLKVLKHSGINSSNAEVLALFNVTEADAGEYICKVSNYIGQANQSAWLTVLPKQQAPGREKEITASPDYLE
T2 sequence (P21802 other isoform, or with tags, fused parts or gaps): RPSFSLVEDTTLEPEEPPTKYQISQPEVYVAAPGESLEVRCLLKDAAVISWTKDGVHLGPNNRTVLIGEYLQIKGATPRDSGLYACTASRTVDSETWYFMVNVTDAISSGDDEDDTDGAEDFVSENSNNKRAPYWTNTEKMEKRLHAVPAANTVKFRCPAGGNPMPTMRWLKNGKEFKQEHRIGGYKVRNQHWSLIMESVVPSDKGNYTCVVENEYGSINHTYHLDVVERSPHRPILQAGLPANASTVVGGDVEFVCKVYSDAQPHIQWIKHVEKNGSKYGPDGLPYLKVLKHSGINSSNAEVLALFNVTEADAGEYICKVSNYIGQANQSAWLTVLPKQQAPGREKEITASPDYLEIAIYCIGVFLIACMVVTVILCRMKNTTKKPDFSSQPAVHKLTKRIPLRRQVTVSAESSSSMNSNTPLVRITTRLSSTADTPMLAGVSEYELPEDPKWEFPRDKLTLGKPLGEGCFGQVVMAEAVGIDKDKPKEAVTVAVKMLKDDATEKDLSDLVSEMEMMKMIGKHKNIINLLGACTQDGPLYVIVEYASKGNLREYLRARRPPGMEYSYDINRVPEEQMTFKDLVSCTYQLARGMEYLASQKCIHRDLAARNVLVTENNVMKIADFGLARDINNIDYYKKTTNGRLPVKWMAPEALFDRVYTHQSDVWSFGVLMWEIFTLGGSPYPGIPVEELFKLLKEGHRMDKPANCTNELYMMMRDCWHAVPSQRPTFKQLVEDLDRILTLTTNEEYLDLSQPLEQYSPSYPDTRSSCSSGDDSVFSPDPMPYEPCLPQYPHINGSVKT

B1: HC18 (antibody, human IgG1, kappa, V domains shown)
VH: EVQLQQSGTVLARPGASVKMSCKTSGYTFTSYWMHWVKQRPGQGLEWIGSIYPENSDTSYNQKFKGKAKLTAVTSASTAYMDLSSLTNEDSAVYYCSIYHGYDGDYWGQGTTLTVSS
VL: QIVLTQSPAIMSASPGEKVTITCSASSSVSYMYWFQQKPGTSPKLWIYSTSNLASGVPARFSGSGSGTSYSLTISRMEAEDAATYYCQQRSSYPYTFGGGTKLEIKR
notes: also called mAb HC18; the antibody of the present disclosure
- IC50 [1]: 3.82 nM
- IC50 [2]: 4.99 nM
- EC50 (read off the curve) [3]: ~0.4 nM
- Kd (FGFR2b-his): 26.7 nM
- koff (FGFR2b-his): 0.005 s⁻¹
- kon (FGFR2b-his): 187000 M⁻¹ s⁻¹

Source: patent US20260242487A1 (HANGZHOU ZHONGMEIHUADONG PHARMACEUTICAL, published 2026)
